For assay [1], the target named is T1, human CD33-His (extracellular domain Asp 18-His 259) (human, UniProt P20138 18-259).
T1 construct: range 18-259; bought protein; also called hCD33-his; human CD33 protein; not shown: His tag
Nature of the assay: competitive ELISA vs coated SGN-33 3ug/mL; soluble 25ug/ml.

Assay [2] addresses T1, human CD33-His (extracellular domain …). Nature of the assay: competitive ELISA vs coated SGN-33 2ug/mL; soluble 25ug/ml. On the procedure: (§1) VHH antibodies and control antibodies with known epitopes were subjected to epitope classification with competitive ELISA. ELISA plates were coated with 2 μg/mL antibodies according to the method in Example 5.1; the human CD33-his protein was subjected to a gradient dilution from 30 μg/mL, and EC80 values (Tables 26-27) were calculated. ELISA plates were coated with 2 μg/mL antibodies; after 25 µg/mL of antibodies to be tested were added, a human CD33-his protein having an EC80 concentration corresponding to each of the antibodies to be tested was then added for incubation for 2 h. The plates were washed 5 times with PBS, then HRP-labeled anti-His antibodies (purchased from GenScript, Cat. No. A00612) were added for incubation for 1 h, and the plates were washed 5 times. A TMB substrate was added at 50 μL/well and incubated at room temperature for 10 min, then a stop solution (1.0 M HCl) was added at 50 μL/well. OD_{450 nm} values were read using an ELISA plate reader (Insight, purchased from PerkinElmer), and the competition rate between the antibodies was calculated according to the OD_{450 nm} values using a formula. The results are shown in FIGS. 12A-12B, the higher the value of the competition rate, the closer the epitopes to which two antibodies bind.
Background: ELISA stands for enzyme-linked immunosorbent assay.

The target is the same in assay [3]. Nature of the assay: competitive ELISA vs coated S006-NB146-20 2ug/mL; soluble 25ug/ml. On the procedure:
as §1

Assay [4] deals with T2, human CD33-C2-his (human, UniProt P20138 136-260).
T2 construct: expressed in HEK293E; also called hCD33-C2-his; human CD33 protein C2-domain; not shown: His tag
T2 sequence (P20138 other isoform, or with tags, fused parts or gaps limits assumed): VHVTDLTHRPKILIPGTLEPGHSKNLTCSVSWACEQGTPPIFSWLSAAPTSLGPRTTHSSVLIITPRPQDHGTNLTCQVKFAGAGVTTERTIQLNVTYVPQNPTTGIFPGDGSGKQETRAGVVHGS
The assay is described as follows: ELISA on coated human CD33-C2-his. The text has this:
Plates were coated with human CD33-V-his (membrane distal end) and human CD33-C2-his (membrane proximal end), respectively, according to the ELISA method in Example 8. The VHH humanized antibodies were classified based on the membrane distal end and the membrane proximal end, as shown in FIGS. 20A-20J and Table 44, which allowed the classification of the VHH humanized antibodies into the following classes: […]

Assay [5] concerns the target T3, monkey CD33-His protein (monkey).
T3 construct: also called monkey CD33 protein
The assay is described as follows: ELISA on coated monkey CD33-his.

Assay [6] addresses T4, human CD33-his protein (human, UniProt P20138 18-259).
T4 construct: range 18-259; bought protein; also called hCD33-his; recombinant human CD33-his; not shown: His tag
The assay is described as follows: SPR (Biacore), antibody captured on Protein A chip, human CD33-his analyte. The protocol: The sample and running buffer was HBS-EP+ (10 mM HEPES, 150 mM NaCl, 3 mM EDTA, 0.05% surfactant P20) (GE Healthcare; BR-1006-69). The flow cell was set at 25° C. The sample block was set at 16° C. Both were pretreated with the running buffer. In each cycle, first, the antibody to be tested was captured using the Protein A chip, and then a single concentration of CD33 antigen protein was injected. The association and dissociation processes of the antibody with the antigen protein were recorded, and finally, the chip was regenerated using Glycine pH 1.5 (GE Healthcare; BR-1003-54). The association was determined by injecting different concentrations of recombinant human CD33-his in the solution and maintaining for 240 s, wherein the flow rate was 30 μL/min, and the protein was diluted in a 1:1 dilution ratio from 200 nM to obtain 5 concentrations in total. The dissociation phase was monitored for up to 600 s and triggered by switching from the sample solution to the running buffer. The surface was regenerated by washing with 10 mM glycine solution (pH 1.5) at a flow rate of 30 μL/min for 30 s. The difference in bulk refractive index was corrected by subtracting the responses obtained from the […]. Blank injections were also subtracted (=double reference). To calculate the apparent KD and other kinetic parameters, the Langmuir 1:1 model was used.

The target in assay [7] is T4, human CD33-his protein. The assay is described as follows: competition ELISA, coated human CD33-his, vs Biotin-C33B904 at EC80; antibody 0 nM (no competitor). The protocol:
(§2) ELISA plates were coated with 2 μg/mL human CD33-his protein according to the method in Example 5.1; the Biotin-C331B904 antibody was subjected to a gradient dilution from 15 μg/mL, and EC80 values (0.18 μg/mL) were calculated. ELISA plates were coated with 2 μg/mL human CD33-his protein; starting from 40 μg/mL, the VHH antibodies to be tested were diluted in a 1:2 dilution ratio to obtain seven concentrations and added to the ELISA plates, and then Biotin-C331904 antibodies with the EC80 concentrations were added for incubation for 2 h. The plates were washed 5 times with PBS and then […] (purchased from Sigma, Cat. No. S2438) were added for incubation for 1 h, and the plates were washed 5 times. A TMB substrate was added at 50 μL/well and incubated at room temperature for 10 min, then a stop solution (1.0 M HCl) was added at 50 μL/well. OD_{450 nm} values were read using an ELISA plate reader (Insight, purchased from PerkinElmer). Then, analysis was performed by software (GraphPad Prism8), and data were fitted for curve plotting. The results are shown in FIGS. 13A-13B and Tables 28 and 29.

For assay [8], the target named is T4, human CD33-his protein. Nature of the assay: competition ELISA, coated human CD33-his, vs Biotin-C33B904 at EC80; antibody 125.00 nM. The protocol: as §2
Assay [9] has as its target T4, human CD33-his protein. The assay is described as follows: competition ELISA, coated human CD33-his, vs Biotin-C33B904 at EC80; antibody 62.50 nM. The protocol: as §2
Assay [10] has as its target T4, human CD33-his protein. The assay is described as follows: competition ELISA, coated human CD33-his, vs Biotin-C33B904 at EC80; antibody 0.49 nM. The protocol:
as §2

Assay [11] deals with T4, human CD33-his protein. The assay is described as follows: competition ELISA, coated human CD33-his, vs Biotin-C33B904 at EC80; antibody 0.98 nM. The protocol:
as §2

The results in this text go back to patent US20240124575A1 (SIMCERE ZAIMING PHARMACEUTICAL, published 2024).

The term EC50 (read off the curve) denotes the concentration that produces a half-maximal response. One may read the Kd as a measure of binding affinity in units of concentration. A word on the koff: it is a measure of how fast the partners let go of each other. Usually kon stands for a measure of how fast the partners come together.

T4 sequence (P20138 18-259 limits assumed): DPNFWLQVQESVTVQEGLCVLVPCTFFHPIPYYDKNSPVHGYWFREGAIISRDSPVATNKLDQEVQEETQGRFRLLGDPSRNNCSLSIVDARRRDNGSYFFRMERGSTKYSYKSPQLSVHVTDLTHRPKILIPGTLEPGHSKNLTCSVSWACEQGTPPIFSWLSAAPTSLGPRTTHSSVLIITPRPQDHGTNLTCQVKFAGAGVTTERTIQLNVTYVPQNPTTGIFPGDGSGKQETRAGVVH
T1 sequence (P20138 18-259 limits assumed): as above

B1: C33B904 hIgG1 (antibody, V domains shown)
VH: EVQLVESGGGLVQPGRSLRLSCAASGFTFDDYAMHWVRQAPGKGLEWVSGIGWSGGSIVYADSVKGRFTISRDNAKNSLYLQMNSLRAEDTALYYCAKDSPYGDFFDYWGQGTLVTVSS
VL: DIVMTQSPDSLAVSLGERATINCKSSQTVFYSSNNKNYLAWYQQKPGQPPKLLISWASTRKSGVPDRFSGSGSGTDFTLTVSSLQAEDVAVYYCQHYYSTPYTFGQGTKLEIKR
notes: intact human IgG1; variable regions from US20190382481A1; also called C33B3904; C331B904
Regarding B1, the inhibition rate in assay [1] came out at 14%; in [2], 17%; in [3], 100%. The results for the concentration giving a half-maximal response (EC50 (read off the curve)) in assay [4] and in assay [5] were about 0.05 nM and about 0.1 nM, respectively.

B2: C33B904 (antibody, human IgG1, kappa, V domains shown)
VH: B1 VH
VL: B1 VL
notes: control antibody, intact human IgG1 form; variable regions from US20190382481A1; also called C33B904 hIgG1; C331B904
In [6], B2 had a Kd of 0.079 nM. In [6], the off-rate (koff) turned out to be 6.54e-05 s⁻¹. This molecule also showed a kon in [6] of 828000 M⁻¹ s⁻¹. For the same molecule, the “OD450 (Biotin-C33B904 signal)” value in assay [7] came to 2.35; in assay [8], 0.13; in assay [9], 0.32; in assay [10] it was 2.26; in assay [11] it was 2.22.
